The record followed here is article PMC2877795, “Laminin chain assembly is regulated by specific coiled-coil interactions” (Journal of Structural Biology, 2010).

Common to all, as to settings: both partners purified
The target in assay [1] is T1, β2γ1 complex of the recombinant mouse laminin coiled-coil fragments (mouse, UniProt Q61292 1575-1799; P02468 1362-1607).
T1 construct: two residues (GlySer) left from the protease recognition site after thrombin cleavage; laminin β2 chain, mouse, residues 1575-1799 of the native chain; as m7; laminin γ1 chain, mouse, residues 1362-1607 of the native chain; as m9; in the αβγ tests all three chains were mixed, the βγ complex was not isolated beforehand; source: mixture of the purified E. coli fragments; not shown: 6xHis, …
T1 sequence 1: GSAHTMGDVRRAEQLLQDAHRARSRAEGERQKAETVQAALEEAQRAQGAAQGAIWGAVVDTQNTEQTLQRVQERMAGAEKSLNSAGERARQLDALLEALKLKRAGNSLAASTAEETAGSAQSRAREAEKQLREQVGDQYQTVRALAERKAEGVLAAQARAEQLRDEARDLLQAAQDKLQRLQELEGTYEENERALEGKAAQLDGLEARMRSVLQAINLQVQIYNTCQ
T1 sequence 2: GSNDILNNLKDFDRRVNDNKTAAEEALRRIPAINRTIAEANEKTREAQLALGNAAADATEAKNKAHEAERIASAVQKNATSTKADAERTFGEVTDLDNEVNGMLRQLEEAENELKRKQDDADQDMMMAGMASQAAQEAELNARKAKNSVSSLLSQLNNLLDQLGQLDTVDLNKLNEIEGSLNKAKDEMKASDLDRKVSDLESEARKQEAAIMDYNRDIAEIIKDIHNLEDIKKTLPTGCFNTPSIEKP
Kind of assay: native gel or EMSA; mixtures of one α, one β and one γ chain fragment; 10% non-denaturing PAGE (acid gels for basic complexes); mixtures reduced, heated to 70 °C for 5 min and cooled; run overnight at 50 V, room temperature, no cooling; Coomassie; bands confirmed by in-gel trypsin digestion and mass spectrometry. (In general: A gel shift assay detects complexes by their altered migration in electrophoresis.)

The target in assay [2] is T2, β1γ1 complex of the recombinant mouse laminin coiled-coil fragments (mouse, UniProt P02469 1561-1786; P02468 1362-1607).
T2 construct: two residues (GlySer) left from the protease recognition site after thrombin cleavage; laminin β1 chain, mouse, residues 1561-1786 of the native chain; as m6; laminin γ1 chain, mouse, residues 1362-1607 of the native chain; as m9; heterodimer by AUC; in the αβγ tests all three chains were mixed, the βγ complex was not isolated beforehand; source: mixture of the purified E. coli fragments; not …
T2 sequence 1: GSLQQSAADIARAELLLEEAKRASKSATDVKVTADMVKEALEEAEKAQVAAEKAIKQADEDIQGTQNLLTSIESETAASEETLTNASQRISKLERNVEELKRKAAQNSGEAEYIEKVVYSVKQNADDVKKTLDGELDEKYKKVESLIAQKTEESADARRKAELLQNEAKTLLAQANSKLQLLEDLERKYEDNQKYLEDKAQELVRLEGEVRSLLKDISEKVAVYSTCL
T2 sequence 2: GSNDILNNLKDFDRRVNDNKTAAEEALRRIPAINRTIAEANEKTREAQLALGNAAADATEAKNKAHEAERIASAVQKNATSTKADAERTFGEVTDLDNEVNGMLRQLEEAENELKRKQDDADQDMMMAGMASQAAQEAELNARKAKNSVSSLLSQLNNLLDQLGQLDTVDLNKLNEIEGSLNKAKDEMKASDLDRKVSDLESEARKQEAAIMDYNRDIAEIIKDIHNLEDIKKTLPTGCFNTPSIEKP
The assay is described as above.

For assay [3], the target named is T3, β2γ3 complex of the recombinant mouse laminin coiled-coil fragments (mouse, UniProt Q61292 1575-1799; Q9R0B6 1344-1581).
T3 construct: two residues (GlySer) left from the protease recognition site after thrombin cleavage; laminin β2 chain, mouse, residues 1575-1799 of the native chain; as m7; laminin γ3 chain, mouse, residues 1344-1581 of the native chain; as m11; in the αβγ tests all three chains were mixed, the βγ complex was not isolated beforehand; source: mixture of the purified E. coli fragments; not shown: 6xHis, …
T3 sequence 1: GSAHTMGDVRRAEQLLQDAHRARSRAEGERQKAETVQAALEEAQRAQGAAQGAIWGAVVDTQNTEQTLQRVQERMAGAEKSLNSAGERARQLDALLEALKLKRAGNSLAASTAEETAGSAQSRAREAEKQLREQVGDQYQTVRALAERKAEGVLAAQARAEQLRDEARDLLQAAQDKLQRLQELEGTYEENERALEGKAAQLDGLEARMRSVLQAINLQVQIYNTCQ
T3 sequence 2: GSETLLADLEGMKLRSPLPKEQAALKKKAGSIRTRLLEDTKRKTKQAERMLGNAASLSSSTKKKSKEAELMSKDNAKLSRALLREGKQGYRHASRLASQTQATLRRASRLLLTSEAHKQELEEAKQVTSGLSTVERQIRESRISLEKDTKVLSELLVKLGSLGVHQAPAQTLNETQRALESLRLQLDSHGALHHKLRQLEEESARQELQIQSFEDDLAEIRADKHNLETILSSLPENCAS
The assay is described as above.

In assay [4] the target is T4, β2γ2 complex of the recombinant mouse laminin coiled-coil fragments (mouse, UniProt Q61292 1575-1799; Q61092 949-1191).
T4 construct: two residues (GlySer) left from the protease recognition site after thrombin cleavage; laminin β2 chain, mouse, residues 1575-1799 of the native chain; as m7; laminin γ2 chain, mouse, residues 949-1191 of the native chain; as m10; in the αβγ tests all three chains were mixed, the βγ complex was not isolated beforehand; also called β2γ2 dimer; source: mixture of the purified E. coli fragments; not …
T4 sequence 1: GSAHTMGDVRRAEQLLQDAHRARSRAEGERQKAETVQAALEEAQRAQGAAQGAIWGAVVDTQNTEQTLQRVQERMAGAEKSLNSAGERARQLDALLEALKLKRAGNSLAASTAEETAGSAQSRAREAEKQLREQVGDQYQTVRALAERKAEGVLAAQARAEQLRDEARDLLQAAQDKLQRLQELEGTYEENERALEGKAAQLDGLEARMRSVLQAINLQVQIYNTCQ
T4 sequence 2: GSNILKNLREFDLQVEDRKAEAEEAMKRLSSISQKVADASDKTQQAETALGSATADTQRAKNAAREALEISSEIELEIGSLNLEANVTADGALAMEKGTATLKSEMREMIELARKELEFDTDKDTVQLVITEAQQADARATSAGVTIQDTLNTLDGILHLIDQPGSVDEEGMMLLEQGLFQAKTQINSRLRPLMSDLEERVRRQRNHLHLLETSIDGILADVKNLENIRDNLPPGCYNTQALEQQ
Described as above.

Assay [5] addresses T5, recombinant mouse laminin γ2 chain C-terminal coiled-coil fragment (949–1191) (mouse, UniProt Q61092 949-1191).
T5 construct: two residues (GlySer) left from the protease recognition site after thrombin cleavage; laminin γ2 chain, mouse, C-terminal coiled-coil fragment, residues 949-1191 of the native chain (243 residues); source: E. coli JM109(DE3), purified (Ni2+-Sepharose, denaturing, 8 M urea), 6xHis tag removed by thrombin; not shown: 6xHis, N-terminal, cleaved; pPEP-T leader (short C-terminal fragment of the …)
T5 sequence: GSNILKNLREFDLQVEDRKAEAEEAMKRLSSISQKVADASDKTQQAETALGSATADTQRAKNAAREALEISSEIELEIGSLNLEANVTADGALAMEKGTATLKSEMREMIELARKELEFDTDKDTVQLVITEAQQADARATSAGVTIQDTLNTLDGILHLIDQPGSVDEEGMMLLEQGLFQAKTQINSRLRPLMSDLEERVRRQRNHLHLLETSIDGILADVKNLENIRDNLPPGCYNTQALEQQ
The experiment in a line: native gel or EMSA; mixtures of one β and one γ chain fragment; 10% non-denaturing PAGE (acid gels for basic complexes); mixtures reduced, heated to 70 °C for 5 min and cooled; run overnight at 50 V; Coomassie; bands confirmed by in-gel trypsin digestion and mass spectrometry.

For assay [6], the target named is T6, recombinant mouse laminin γ3 chain C-terminal coiled-coil fragment (1344–1581) (mouse, UniProt Q9R0B6 1344-1581).
T6 construct: two residues (GlySer) left from the protease recognition site after thrombin cleavage; laminin γ3 chain, mouse, C-terminal coiled-coil fragment, residues 1344-1581 of the native chain (238 residues); source: E. coli JM109(DE3), purified (Ni2+-Sepharose, denaturing, 8 M urea), 6xHis tag removed by thrombin; not shown: 6xHis, N-terminal, cleaved
T6 sequence: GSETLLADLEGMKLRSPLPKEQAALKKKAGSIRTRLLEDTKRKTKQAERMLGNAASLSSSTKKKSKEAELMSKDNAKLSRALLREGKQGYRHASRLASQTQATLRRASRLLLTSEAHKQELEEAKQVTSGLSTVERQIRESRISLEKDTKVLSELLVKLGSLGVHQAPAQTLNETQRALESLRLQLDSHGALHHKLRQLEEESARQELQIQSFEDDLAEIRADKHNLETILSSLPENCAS
The assay is described as above.

The target in assay [7] is T7, recombinant mouse laminin γ1 chain C-terminal coiled-coil fragment (1362–1607) (mouse, UniProt P02468 1362-1607).
T7 construct: two residues (GlySer) left from the protease recognition site after thrombin cleavage; laminin γ1 chain, mouse, C-terminal coiled-coil fragment, residues 1362-1607 of the native chain (246 residues); source: E. coli JM109(DE3), purified (Ni2+-Sepharose, denaturing, 8 M urea), 6xHis tag removed by thrombin; not shown: 6xHis, N-terminal, cleaved; pPEP-T leader (short C-terminal fragment of the …)
T7 sequence: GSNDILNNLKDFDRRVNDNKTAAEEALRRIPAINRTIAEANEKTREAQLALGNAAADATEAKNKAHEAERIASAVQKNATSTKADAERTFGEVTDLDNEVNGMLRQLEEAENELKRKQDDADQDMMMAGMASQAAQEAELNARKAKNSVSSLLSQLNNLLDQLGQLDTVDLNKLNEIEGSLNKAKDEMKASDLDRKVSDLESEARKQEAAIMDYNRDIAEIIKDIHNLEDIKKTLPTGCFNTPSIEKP
The description is as above.

B1: recombinant mouse laminin α4 chain C-terminal coiled-coil fragment (616–842) (domain or fragment)
chain: GSASNVYENIANYVSEANETAELALNITDRIYDAVSGIDTQIIYHKDESDNLLNQARELQAKADSSNDEAVADTSRRVGGALWRKGALRDRLNDAVKQLQAAERGDAHQRLGQSKLFIEEANKTTAAVQQVTTPMANNLSNWSQNLQTFDSSAYNTAVDSARDAVRNLTEVVPQLLDQLRTVEQKRPASNISASIQRIRELIAQTRSVASKIQVSMMFDGQSAVEVHPK
notes: two residues (GlySer) left from the protease recognition site after thrombin cleavage; laminin α4 chain, mouse, C-terminal coiled-coil fragment, residues 616-842 of the native chain (227 residues); source: E. coli JM109(DE3), purified (Ni2+-Sepharose, denaturing, 8 M urea), 6xHis tag removed by thrombin; not shown: 6xHis, N-terminal, cleaved; pPEP-T leader (short C-terminal fragment of the …)
B1: the binding result in assay [1], in assay [2], in assay [3] and in assay [4] was “binds” in each case.

B2: recombinant mouse laminin α5 chain C-terminal coiled-coil fragment (2525–2748) (domain or fragment)
chain: GSNAYSSILQAVQAAEDAAGQALRQASRTWEMVVQRGLAAGARQLLANSSALEETILGHQGRLGLAQGRLQAAGIQLHNVWARKNQLAAQIQEAQAMLAMDTSETSEKIAHAKAVAAEALSTATHVQSQLQGMQKNVERWQSQLGGLQGQDLSQVERDASSSVSTLEKTLPQLLAKLSRLENRGVHNASLALSANIGRVRKLIAQARSAASKVKVSMKFNGRSGVR
notes: two residues (GlySer) left from the protease recognition site after thrombin cleavage; laminin α5 chain, mouse, C-terminal coiled-coil fragment, residues 2525-2748 of the native chain (224 residues); source: E. coli JM109(DE3), purified (Ni2+-Sepharose, denaturing, 8 M urea), 6xHis tag removed by thrombin; not shown: 6xHis, N-terminal, cleaved
On to B2, for which the binding result in assay [1], in assay [2] and in assay [3] was “binds” in each case.

B3: recombinant mouse laminin β3 chain C-terminal coiled-coil fragment (945–1168) (domain or fragment)
chain: GSLSQTKQDIARARRLQAEAEQARSRAHAVEGQVDDVVGNLRQGTVALQEAQDTMQGTGRSLRLIQERVGEVQQVLVPAERLVKGMKEQMSGFWARMKELRRQAQEEQAQAMQARQLAEGASQQAMNAQEGFKRLKQKYTELKDRLGQSPVLGEQGNRILSIKMEAEELFGETMEMMDKMKDMESELLRGSQAIMLRSADLSGLEKRVEQIRSYINGRVLYYATCK
notes: two residues (GlySer) left from the protease recognition site after thrombin cleavage; laminin β3 chain, mouse, C-terminal coiled-coil fragment, residues 945-1168 of the native chain (224 residues); source: E. coli JM109(DE3), purified (Ni2+-Sepharose, denaturing, 8 M urea), 6xHis tag removed by thrombin; not shown: 6xHis, N-terminal, cleaved
As to B3, the binding result in assay [5] is given as “binds”.

B4: recombinant mouse laminin β2 chain C-terminal coiled-coil fragment (1575–1799) (domain or fragment)
chain: GSAHTMGDVRRAEQLLQDAHRARSRAEGERQKAETVQAALEEAQRAQGAAQGAIWGAVVDTQNTEQTLQRVQERMAGAEKSLNSAGERARQLDALLEALKLKRAGNSLAASTAEETAGSAQSRAREAEKQLREQVGDQYQTVRALAERKAEGVLAAQARAEQLRDEARDLLQAAQDKLQRLQELEGTYEENERALEGKAAQLDGLEARMRSVLQAINLQVQIYNTCQ
notes: two residues (GlySer) left from the protease recognition site after thrombin cleavage; laminin β2 chain, mouse, C-terminal coiled-coil fragment, residues 1575-1799 of the native chain (225 residues); source: E. coli JM109(DE3), purified (Ni2+-Sepharose, denaturing, 8 M urea), 6xHis tag removed by thrombin; not shown: 6xHis, N-terminal, cleaved
For B4, the binding result in assay [5], in assay [6] and in assay [7] was “binds” in each case.
